We go through 4 molecules from patent US20050153894 (published 2005).

Square brackets hold non-standard residues; d marks the D form. Ends that are not written are not given here.

Assay [1] has as its target cyclin D1 (human, UniProt P24385). The assay can be described thus: competition.
Assay [2] deals with cyclin A (human, UniProt P20248). The assay can be described thus: competition, immobilised p21 peptide.
Chain of cyclin A (P20248 whole entry): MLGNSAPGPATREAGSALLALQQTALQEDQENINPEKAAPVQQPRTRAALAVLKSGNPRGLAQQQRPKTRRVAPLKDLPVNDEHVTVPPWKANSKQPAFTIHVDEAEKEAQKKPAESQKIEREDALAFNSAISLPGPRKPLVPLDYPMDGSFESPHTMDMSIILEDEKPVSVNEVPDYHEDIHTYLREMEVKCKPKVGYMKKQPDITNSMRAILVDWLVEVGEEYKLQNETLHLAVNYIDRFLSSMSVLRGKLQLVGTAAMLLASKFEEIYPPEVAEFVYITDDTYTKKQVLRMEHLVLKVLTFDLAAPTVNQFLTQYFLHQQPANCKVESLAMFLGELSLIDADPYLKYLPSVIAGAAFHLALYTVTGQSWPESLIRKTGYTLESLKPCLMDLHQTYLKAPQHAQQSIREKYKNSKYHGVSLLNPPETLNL

Chain of cyclin D1 (P24385 whole entry): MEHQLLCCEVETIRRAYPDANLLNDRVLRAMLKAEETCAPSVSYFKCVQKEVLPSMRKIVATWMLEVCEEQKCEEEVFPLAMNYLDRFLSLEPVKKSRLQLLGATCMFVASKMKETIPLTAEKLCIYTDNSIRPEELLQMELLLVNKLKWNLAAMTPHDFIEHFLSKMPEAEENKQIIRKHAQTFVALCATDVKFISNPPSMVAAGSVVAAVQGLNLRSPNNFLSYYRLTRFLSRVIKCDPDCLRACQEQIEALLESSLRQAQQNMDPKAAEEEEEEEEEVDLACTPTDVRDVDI

B1: p21 N-terminus KAURRLFG (peptide)
chain: KA[code U]RRLFG
As for B1, in assay [1], the IC50 turned out to be 134 µM.

B2: p27 SAURNLFG (peptide)
chain: SA[code U]RNLFG
Molecule B2 registered an IC50 in assay [1] of over 200 µM.

B3: KAURRLIF (peptide)
chain: KA[code U]RRLIF
B3 returned an IC50 in assay [1] of 20 µM.

B4: GST-pRb(772-928) (protein)
chain: ASTRPPTLSPIPHIPRSPYKFPSSPLRIPGGNIYISPLKSPYKISEGLPTPTKMTPRSRILVSIGESFGTSEKFQKINQMVCNSDRVLKRSAEGSNPPKPLKKLRFDIEGSDEADGSKHLPGESKFQQKLAEMTSTRTRMQKQKMNDSMDTSNKEEK
Molecule B4 showed an IC50 in assay [2] of 9 µM.

A word on the IC50: it is the concentration at which inhibition is half-maximal. High values mean a need for much substance, low ones inhibition by little substance.
